This note sets out measurements from article PMC4861916, “Characterization of a Citrus R2R3-MYB Transcription Factor that Regulates the Flavonol and Hydroxycinnamic Acid Biosynthesis”.

For this data set, the target named is CsMYBF1 (Citrus, UniProt A0A125SL50 1-337). The data set can be described thus: EMSA; 0.1% Nonidet P-40, 1 mM benzamidine, 0.5 mM PMSF, 0.5 mM DTT, 50 ug/mL BSA, 100 ng/uL poly(dI-dC), 5 uM Cy3 probe, 1 ug protein in 20 uL, 4 C 2 h; 6% PAGE in 0.5x TBE at 4 C; salt and pH not stated. Conditions: protein: recombinant; tags: His (pET28a); label: Cy3.
Sequence of CsMYBF1 (A0A125SL50 entry or part of it): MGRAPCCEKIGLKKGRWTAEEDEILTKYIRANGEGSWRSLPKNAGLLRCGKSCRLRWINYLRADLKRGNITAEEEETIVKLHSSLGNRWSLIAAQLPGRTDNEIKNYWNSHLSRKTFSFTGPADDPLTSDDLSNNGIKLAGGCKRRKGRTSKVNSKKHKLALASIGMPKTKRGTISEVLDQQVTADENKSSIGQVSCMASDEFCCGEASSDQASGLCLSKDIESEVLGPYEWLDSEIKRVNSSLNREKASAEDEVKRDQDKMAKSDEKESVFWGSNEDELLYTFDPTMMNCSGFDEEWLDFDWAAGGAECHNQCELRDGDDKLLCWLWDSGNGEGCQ

B1: SlFLS promoter probe WT (dsDNA)
DNA 1: CTTATATCACCTACTCAACTTA
DNA 2: TAAGTTGAGTAGGTGATATAAG
Regarding B1, the binding result was “binds”.

B2: SlFLS promoter probe mutant (dsDNA)
DNA 1: CTTATATCGTCGACTCAACTTA
DNA 2: TAAGTTGAGTCGACGATATAAG
Turning to B2, the binding result was “no binding”.

B3: CsCHS promoter probe WT (dsDNA)
DNA 1: TTGATTTAACCTACCCCCATTG
DNA 2: CAATGGGGGTAGGTTAAATCAA
Turning to B3, the binding result is listed as “binds”.

B4: CsCHS promoter probe mutant (dsDNA)
DNA 1: TTGATTTCTAGAACCCCCATTG
DNA 2: CAATGGGGGTTCTAGAAATCAA
Take B4: the binding result was “no binding”.

B5: Cs4CL promoter probe WT (dsDNA)
DNA 1: TTAACTGCACCTACCACACCCA
DNA 2: TGGGTGTGGTAGGTGCAGTTAA
Turning to B5, the binding result is on record as “binds”.

B6: Cs4CL promoter probe mutant (dsDNA)
DNA 1: TTAACTGCTCTAGACACACCCA
DNA 2: TGGGTGTGTCTAGAGCAGTTAA
Take B6: the binding result was “no binding”.
